Two molecules from paper PMC7156504 can be followed below.

The target in assay [1] is scFvWFL, single chain variant (scFv) of MEDI1912 (human). The experiment in a line: cross-linking; scFv 15 µM in 100 mM sodium phosphate pH 7.4, d0/d4-BS3 (50:50) at 50x, 100x, 200x and 500x molar excess, 30 min at 25 °C; SDS-PAGE densitometry and LC-MS/MS of the dimer bands.
For assay [2], the target named is scFvSTT, scFv of MEDI1912 with W35S, F36T and L64T in VH (human). The description is as above.

B1: scFvWFL, single chain variant (scFv) of MEDI1912 (scFv, V domains shown)
VH: QVQLVQSGAEVKKPGSSVKVSCKASGGTFWFGAFTWVRQAPGQGLEWMGGIIPIFGLTNLAQNFQGRVTITADESTSTVYMELSSLRSEDTAVYYCARSSRIYDLNPSLTAYYDMDVWGQGTMVTVSS
VL: QSVLTQPPSVSAAPGQKVTISCSGSSSDIGNNYVSWYQQLPGTAPKLLIYDNNKRPSGIPDRFSGSKSGTSATLGITGLQTGDEADYYCGTWDSSLSAWVFGGGTKLTVL
Take B1: the percent incorporated into higher-order oligomers in assay [1] stood at 45%.

B2: scFvSTT, scFv of MEDI1912 with W35S, F36T and L64T in VH (scFv, V domains shown)
VH: QVQLVQSGAEVKKPGSSVKVSCKASGGTFSTGAFTWVRQAPGQGLEWMGGIIPIFGTTNLAQNFQGRVTITADESTSTVYMELSSLRSEDTAVYYCARSSRIYDLNPSLTAYYDMDVWGQGTMVTVSS
VL: QSVLTQPPSVSAAPGQKVTISCSGSSSDIGNNYVSWYQQLPGTAPKLLIYDNNKRPSGIPDRFSGSKSGTSATLGITGLQTGDEADYYCGTWDSSLSAWVFGGGTKLTVL
In turn, B2 showed a percent remaining monomeric in assay [2] of 99%.
